Assay results from article PMC4211667, “Cell Fate Regulation Governed by a Repurposed Bacterial Histidine Kinase” (PLoS Biology, 2014).
Values belong to the molecule of their own block, whether it stands above or below them.

Experiments:
DivL(523–769) = target: T1, DivL(523–769) (Caulobacter vibrioides, UniProt Q9RQQ9); assay: fluorescence titration of TNP-ATP with DivL; conditions: read-out: apparent binding constant
T1 construct: DHp-CA domains only (no PAS domains), residues 523-769, N-terminal His6, E. coli Rosetta (DE3) pLysS, homodimer in solution
T1 sequence (Q9RQQ9 523-769): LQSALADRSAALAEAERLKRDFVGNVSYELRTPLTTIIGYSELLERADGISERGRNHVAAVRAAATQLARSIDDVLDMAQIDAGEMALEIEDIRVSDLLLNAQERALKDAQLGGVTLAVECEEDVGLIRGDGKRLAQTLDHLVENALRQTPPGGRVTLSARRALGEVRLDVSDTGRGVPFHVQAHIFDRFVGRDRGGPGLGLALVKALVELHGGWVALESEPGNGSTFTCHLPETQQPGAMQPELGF

DivJ = target: T2, DivJ (Caulobacter vibrioides, UniProt Q03228); assay: coupled-enzyme (PK/LDH, NADH) ATPase assay; type: biochemical; conditions: 1 mM ATP, 10 mM MgCl2, kinase buffer pH 8.0; with and without DivK activator
T2 construct: His-tagged, recombinant from E. coli
T2 sequence (Q03228 189-597): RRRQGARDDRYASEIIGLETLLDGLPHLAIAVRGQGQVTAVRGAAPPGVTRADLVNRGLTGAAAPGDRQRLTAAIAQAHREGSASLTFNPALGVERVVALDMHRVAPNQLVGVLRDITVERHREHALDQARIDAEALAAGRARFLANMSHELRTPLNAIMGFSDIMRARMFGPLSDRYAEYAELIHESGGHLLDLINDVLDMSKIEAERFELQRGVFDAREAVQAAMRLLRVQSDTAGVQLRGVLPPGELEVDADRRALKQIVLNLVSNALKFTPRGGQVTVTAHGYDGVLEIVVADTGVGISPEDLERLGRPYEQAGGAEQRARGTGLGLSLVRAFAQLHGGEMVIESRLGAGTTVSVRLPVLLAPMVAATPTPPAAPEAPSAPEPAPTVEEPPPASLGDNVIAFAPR

[1] = target: BODIPY-DivK (unphosphorylated DivK response regulator) (Caulobacter crescentus); assay: fluorescence polarisation; 250 nM BODIPY-DivK or BODIPY-DivK∼P with varying kinase concentrations (DivL 0–120 µM), 45 min to equilibrium; DivK∼P made with 250 nM DivJ, 1 mM ATP, 5 mM MgCl2; unphosphorylated DivK with 1 mM AMP-PNP, 5 mM MgCl2; apparent Kd
Chain of BODIPY-DivK (unphosphorylated DivK response regulator) (Caulobacter crescentus) (Q45976 entry or part of it): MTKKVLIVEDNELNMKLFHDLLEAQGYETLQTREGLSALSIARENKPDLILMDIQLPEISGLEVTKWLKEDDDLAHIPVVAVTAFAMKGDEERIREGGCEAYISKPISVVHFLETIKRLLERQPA

[2] = target: BODIPY-DivK∼P (phosphorylated DivK response regulator) (Caulobacter crescentus); assay: as above
Chain of BODIPY-DivK∼P (phosphorylated DivK response regulator) (Caulobacter crescentus) (Q45976 entry or part of it): as above

[3] = target: the molecule itself; assay: SEC; 2 mg/ml His6-DivL(523–769) on Superdex 200 10/300 GL against Bio-rad standards

Kd (DivL(523–769)): 57 ± 8 µM
Molecule: Nc1ncnc2c1ncn2[C@@H]1O[C@H](COP(=O)(O)OP(=O)(O)OP(=O)(O)O)[C@H]2OC3(O[C@H]21)C([N+](=O)[O-])=CC(=[N+]([O-])O)C=C3[N+](=O)[O-] (some centres unmarked) [TNP-ATP]

Molecule: Nc1ncnc2c1ncn2[C@@H]1O[C@H](COP(=O)(O)OP(=O)(O)OP(=O)(O)O)[C@@H](O)[C@H]1O [ATP]
ATP consumption rate (DivJ): we observed stimulation of DivJ autokinase activity in the presence of DivK

Kd [1]: 15 µM
Kd [2]: 7 µM
B1: His6-DivL(523–769) (domain or fragment, Caulobacter crescentus, UniProt Q9RQQ9 523-769, looked up)
chain: LQSALADRSAALAEAERLKRDFVGNVSYELRTPLTTIIGYSELLERADGISERGRNHVAAVRAAATQLARSIDDVLDMAQIDAGEMALEIEDIRVSDLLLNAQERALKDAQLGGVTLAVECEEDVGLIRGDGKRLAQTLDHLVENALRQTPPGGRVTLSARRALGEVRLDVSDTGRGVPFHVQAHIFDRFVGRDRGGPGLGLALVKALVELHGGWVALESEPGNGSTFTCHLPETQQPGAMQPELGF
notes: DivL pseudo-histidine kinase, Caulobacter crescentus, residues 523-769 (DHp and CA domains with part of the N-terminal input helix); also called DivL DHp-CA construct; crystallization construct; source: E. coli Rosetta (DE3) pLysS (plasmid pWSC8), purified (Ni-NTA, gel filtration); not shown: His6, N-terminal, kept
stoichiometry N [3]: 2
